In patent US20040235127:

Target: Schizochytrium PUFA PKS Orf A protein (carrying nine ACP domains)
Sequence (chain, as listed by the source): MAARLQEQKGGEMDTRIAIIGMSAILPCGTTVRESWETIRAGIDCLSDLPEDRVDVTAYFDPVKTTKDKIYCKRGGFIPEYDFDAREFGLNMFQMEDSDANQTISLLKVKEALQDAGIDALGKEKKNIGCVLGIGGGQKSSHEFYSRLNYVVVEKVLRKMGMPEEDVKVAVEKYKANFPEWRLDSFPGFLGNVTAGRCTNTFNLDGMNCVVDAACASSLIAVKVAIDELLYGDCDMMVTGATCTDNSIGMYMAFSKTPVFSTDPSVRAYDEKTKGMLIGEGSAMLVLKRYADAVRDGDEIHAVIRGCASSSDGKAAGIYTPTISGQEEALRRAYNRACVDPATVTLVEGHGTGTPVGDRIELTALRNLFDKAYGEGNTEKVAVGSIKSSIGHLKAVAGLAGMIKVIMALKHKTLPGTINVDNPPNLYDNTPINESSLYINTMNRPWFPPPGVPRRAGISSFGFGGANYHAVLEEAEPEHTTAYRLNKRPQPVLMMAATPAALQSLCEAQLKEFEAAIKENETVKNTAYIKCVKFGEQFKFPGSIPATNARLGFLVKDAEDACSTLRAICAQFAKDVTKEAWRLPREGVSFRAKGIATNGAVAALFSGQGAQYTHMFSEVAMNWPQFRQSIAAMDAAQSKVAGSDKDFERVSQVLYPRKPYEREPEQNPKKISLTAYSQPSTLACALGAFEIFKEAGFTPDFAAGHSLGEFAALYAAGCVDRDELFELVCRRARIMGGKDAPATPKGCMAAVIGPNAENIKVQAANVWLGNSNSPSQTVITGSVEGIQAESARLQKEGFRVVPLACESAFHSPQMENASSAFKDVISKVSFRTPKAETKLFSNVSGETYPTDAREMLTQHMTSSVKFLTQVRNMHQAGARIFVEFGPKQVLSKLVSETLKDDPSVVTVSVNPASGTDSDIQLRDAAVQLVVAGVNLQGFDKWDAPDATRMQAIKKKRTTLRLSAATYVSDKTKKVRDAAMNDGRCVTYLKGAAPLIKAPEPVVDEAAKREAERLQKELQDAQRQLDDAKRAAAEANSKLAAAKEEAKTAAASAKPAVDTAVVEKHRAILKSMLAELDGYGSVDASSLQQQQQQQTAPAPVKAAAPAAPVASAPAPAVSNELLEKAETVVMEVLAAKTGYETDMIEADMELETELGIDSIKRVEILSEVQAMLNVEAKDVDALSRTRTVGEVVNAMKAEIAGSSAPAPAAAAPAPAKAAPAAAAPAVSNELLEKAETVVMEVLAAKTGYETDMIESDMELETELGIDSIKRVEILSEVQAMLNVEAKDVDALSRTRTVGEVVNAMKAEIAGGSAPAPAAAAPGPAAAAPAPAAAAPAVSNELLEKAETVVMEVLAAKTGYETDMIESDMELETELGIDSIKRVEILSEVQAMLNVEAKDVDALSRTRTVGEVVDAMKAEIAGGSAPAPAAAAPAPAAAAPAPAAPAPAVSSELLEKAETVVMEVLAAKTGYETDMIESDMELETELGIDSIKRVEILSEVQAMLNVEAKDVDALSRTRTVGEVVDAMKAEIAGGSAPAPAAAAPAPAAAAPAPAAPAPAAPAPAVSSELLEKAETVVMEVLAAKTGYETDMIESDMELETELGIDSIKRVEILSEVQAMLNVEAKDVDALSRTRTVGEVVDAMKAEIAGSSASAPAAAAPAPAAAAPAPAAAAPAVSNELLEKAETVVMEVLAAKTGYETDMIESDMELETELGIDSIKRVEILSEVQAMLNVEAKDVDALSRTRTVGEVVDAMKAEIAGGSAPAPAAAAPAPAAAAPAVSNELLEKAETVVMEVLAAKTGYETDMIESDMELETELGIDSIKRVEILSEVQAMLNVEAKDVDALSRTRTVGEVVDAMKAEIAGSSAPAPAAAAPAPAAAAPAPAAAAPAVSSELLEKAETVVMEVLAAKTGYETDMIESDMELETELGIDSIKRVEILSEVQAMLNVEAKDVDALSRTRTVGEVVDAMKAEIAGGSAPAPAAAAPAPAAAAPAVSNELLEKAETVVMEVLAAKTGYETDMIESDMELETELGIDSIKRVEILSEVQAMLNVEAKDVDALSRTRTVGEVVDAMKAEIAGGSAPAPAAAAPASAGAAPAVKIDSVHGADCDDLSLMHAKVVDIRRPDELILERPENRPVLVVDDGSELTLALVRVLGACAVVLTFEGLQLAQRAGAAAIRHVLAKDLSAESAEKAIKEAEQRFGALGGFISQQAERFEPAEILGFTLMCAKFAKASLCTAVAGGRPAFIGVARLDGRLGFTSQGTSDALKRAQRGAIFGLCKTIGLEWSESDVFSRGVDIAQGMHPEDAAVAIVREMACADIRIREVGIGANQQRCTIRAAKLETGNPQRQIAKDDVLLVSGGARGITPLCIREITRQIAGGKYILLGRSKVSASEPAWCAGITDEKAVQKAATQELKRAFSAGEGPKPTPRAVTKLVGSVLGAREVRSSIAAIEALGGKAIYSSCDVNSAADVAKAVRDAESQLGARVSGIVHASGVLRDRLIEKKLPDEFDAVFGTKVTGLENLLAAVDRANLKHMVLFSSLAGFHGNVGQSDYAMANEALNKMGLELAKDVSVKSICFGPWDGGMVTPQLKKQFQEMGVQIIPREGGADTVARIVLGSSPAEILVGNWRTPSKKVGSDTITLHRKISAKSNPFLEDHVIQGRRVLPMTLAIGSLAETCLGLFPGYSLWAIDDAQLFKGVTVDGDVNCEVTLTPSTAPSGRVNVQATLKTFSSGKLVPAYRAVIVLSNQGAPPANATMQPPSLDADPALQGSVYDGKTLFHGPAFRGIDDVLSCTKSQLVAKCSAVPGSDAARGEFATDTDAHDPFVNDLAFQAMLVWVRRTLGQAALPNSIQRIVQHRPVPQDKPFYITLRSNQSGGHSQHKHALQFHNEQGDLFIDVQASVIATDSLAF

B1: sfp PPTase (phosphopantetheine transferase derived from Bacillus subtilis) (protein)
chain: MKIYGIYMDRPLSQEENERFMSFISPEKREKCRRFYHKEDAHRTLLGDVLVRSVISRQYQLDKSDIRFSTQEYGKPCIPDLPDAHFNISHSGRWVICAFDSQPIGIDIEKTKPISLEIAKRFFSKTEYSDLLAKDKDEQTDYFYHLWSMKESFIKQEGKGLSLPLDSFSVRLHQDGQVSIELPDSHSPCYIKTYEVDPGYKMAVCAAHPDFPEDITMVSYEELL
DHA production in E. coli co-expressing the PPTase with Orf A, B*, C (FAME analysis by gas-liquid chromatography): Co-expression of the sfp construct in cells expressing the Orf A, B*, C proteins, under certain conditions, resulted in DHA production.
